According to US10702592B2, “Peptides and combination of peptides for use in immunotherapy against NHL and other cancers” (Immatics Biotechnologies GmbH, priority 2016, dated 2020):

What follows are substances tested against HLA-A*02:01 (Homo sapiens, UniProt P04439, D140Y/D185E/D98H/E176V/E277Q/G131W/G231S/I119V/I121R/I166T/I218V/L300P/L318F/N151K/N90K/P208A/P217A/Q86G/Q94H/R138H/R169H/T345S) (assay: MHC binding assay (UV-ligand exchange, beta2m ELISA)). Details: binding to HLA-A*02:01, UV-ligand exchange.
From the text: Candidate peptides for T cell based therapies according to the present invention were further tested for their MHC binding capacity (affinity). The individual peptide-MHC complexes were produced by UV-ligand exchange, where a UV-sensitive peptide is cleaved upon UV-irradiation, and exchanged with the peptide of interest as analyzed. Only peptide candidates that can effectively bind and stabilize the peptide-receptive MHC molecules prevent dissociation of the MHC complexes. To determine the yield of the exchange reaction, an ELISA was performed based on the detection of the light chain (β2m) of stabilized MHC complexes. The assay was performed as generally described in Rodenko et al. (Rodenko et al., 2006).
96 well MAXISorp plates (NUNC) were coated over night with 2 ug/ml streptavidin in PBS at room temperature, washed 4× and blocked for 1 h at 37° C. in 2% BSA containing blocking buffer. Refolded HLA-A*02:01/MLA-001 monomers served as standards, covering the range of 15-500 ng/ml. Peptide-MHC monomers of the UV-exchange reaction were diluted 100 fold in blocking buffer. Samples were incubated for 1 h at 37° C., washed four times, incubated with 2 ug/ml HRP conjugated anti-β2m for 1 h at 37° C., washed again and detected with TMB solution that is stopped with […]. Absorption was measured at 450 nm. Candidate peptides that show a high exchange yield (preferably higher than 50%, most preferred higher than 75%) are generally preferred for a generation and production of antibodies or fragments thereof, and/or T cell receptors or fragments thereof, as they show sufficient avidity to the MHC molecules and prevent dissociation of the MHC complexes.

| Peptide exchange (MHC class I binding score, peptide exchange yield) | Substance |
| --- | --- |
| “+++” (≥50 = +++) | 137 (FIQQERFFL; listed as Homo sapiens) [compound 137] |
| “++++” (≥75% = ++++) | 138 (NLINNIFEL; listed as Homo sapiens) [compound 138] |
| “++++” (≥75% = ++++) | 139 (FLASPLVAI; listed as Homo sapiens) [compound 139] |
| “+++” (≥50 = +++) | 140 (FLFEDFVEV; listed as Homo sapiens) [compound 140] |
| “+++” (≥50 = +++) | 141 (FLGELTLQL; listed as Homo sapiens) [compound 141] |
| “+++” (≥50 = +++) | 142 (FLYEDSKSVRL; listed as Homo sapiens) [compound 142] |
| “+++” (≥50 = +++) | 143 (TLHAVDVTL; listed as Homo sapiens) [compound 143] |
| “+++” (≥50 = +++) | 144 (GLITQVDKL; listed as Homo sapiens) [compound 144] |
| “+++” (≥50 = +++) | 145 (GLLHEVVSL; listed as Homo sapiens) [compound 145] |
| “+++” (≥50 = +++) | 146 (GLLQQPPAL; listed as Homo sapiens) [compound 146] |
| “+++” (≥50 = +++) | 147 (GLSEYQRNFL; listed as Homo sapiens) [compound 147] |
| “+++” (≥50 = +++) | 148 (ICAGHVPGV; listed as Homo sapiens) [compound 148] |
| “+++” (≥50 = +++) | 149 (ILNPVTTKL; listed as Homo sapiens) [compound 149] |
| “+++” (≥50 = +++) | 150 (ILSEKEYKL; listed as Homo sapiens) [compound 150] |
| “+++” (≥50 = +++) | 151 (ILVKQSPML; listed as Homo sapiens) [compound 151] |
| “++” (≥20% = ++) | 152 (KIMYTLVSV; listed as Homo sapiens) [compound 152] |
| “+++” (≥50 = +++) | 153 (KLLKGIYAI; listed as Homo sapiens) [compound 153] |
| “+++” (≥50 = +++) | 154 (KLMNIQQQL; listed as Homo sapiens) [compound 154] |
| “+++” (≥50 = +++) | 155 (KLMTSLVKV; listed as Homo sapiens) [compound 155] |
| “+++” (≥50 = +++) | 156 (KMLEDDLKL; listed as Homo sapiens) [compound 156] |
| “+++” (≥50 = +++) | 157 (KVLEFLAKV; listed as Homo sapiens) [compound 157] |

| Peptide exchange (MHC class I binding score, peptide exchange yield) | Substance |
| --- | --- |
| “+++” (≥50 = +++) | 158 (KVQDVLHQV; listed as Homo sapiens) [compound 158] |
| “+++” (≥50 = +++) | 159 (LLLSDSGFYL; listed as Homo sapiens) [compound 159] |
| “+++” (≥50 = +++) | 160 (LLPPPSPAA; listed as Homo sapiens) [compound 160] |
| “+++” (≥50 = +++) | 161 (NLMLELETV; listed as Homo sapiens) [compound 161] |
| “++++” (≥75% = ++++) | 162 (RLADLKVSI; listed as Homo sapiens) [compound 162] |
| “++++” (≥75% = ++++) | 163 (SIFDAVLKGV; listed as Homo sapiens) [compound 163] |
| “+++” (≥50 = +++) | 164 (SLFDGAVISTV; listed as Homo sapiens) [compound 164] |
| “+++” (≥50 = +++) | 165 (KLLEEIEFL; listed as Homo sapiens) [compound 165] |
| “+++” (≥50 = +++) | 167 (SLFSITKSV; listed as Homo sapiens) [compound 167] |
| “+++” (≥50 = +++) | 168 (SLLSPLLSV; listed as Homo sapiens) [compound 168] |
| “+++” (≥50 = +++) | 169 (SSLEENLLHQV; listed as Homo sapiens) [compound 169] |
| “++++” (≥75% = ++++) | 171 (TLLDVISAL; listed as Homo sapiens) [compound 171] |
| “++++” (≥75% = ++++) | 172 (TLQDSLEFI; listed as Homo sapiens) [compound 172] |
| “++++” (≥75% = ++++) | 173 (VILDSVASV; listed as Homo sapiens) [compound 173] |
| “++++” (≥75% = ++++) | 174 (VLVEITDVDFAA; listed as Homo sapiens) [compound 174] |
| “+++” (≥50 = +++) | 175 (VMESILLRL; listed as Homo sapiens) [compound 175] |
| “+++” (≥50 = +++) | 176 (YLHIYESQL; listed as Homo sapiens) [compound 176] |
| “+++” (≥50 = +++) | 177 (YLYEAEEATTL; listed as Homo sapiens) [compound 177] |
| “+++” (≥50 = +++) | 178 (YVLQGEFFL; listed as Homo sapiens) [compound 178] |
| “+++” (≥50 = +++) | 179 (FVDTNLYFL; listed as Homo sapiens) [compound 179] |
| “+++” (≥50 = +++) | 180 (GILQLVESV; listed as Homo sapiens) [compound 180] |

| Peptide exchange (MHC class I binding score, peptide exchange yield) | Substance |
| --- | --- |
| “+++” (≥50 = +++) | 181 (LLFDQNDKV; listed as Homo sapiens) [compound 181] |
| “++++” (≥75% = ++++) | 182 (LLPPPPPVA; listed as Homo sapiens) [compound 182] |
| “+++” (≥50 = +++) | 183 (VLFETVLTI; listed as Homo sapiens) [compound 183] |
| “+++” (≥50 = +++) | 184 (AVLGTSWQL; listed as Homo sapiens) [compound 184] |
| “+” (≥10% = +) | 185 (FIAQLNNVEL; listed as Homo sapiens) [compound 185] |
| “+++” (≥50 = +++) | 186 (FLDVSRDFV; listed as Homo sapiens) [compound 186] |
| “++” (≥20% = ++) | 187 (FLNSFVFKM; listed as Homo sapiens) [compound 187] |
| “++” (≥20% = ++) | 188 (GLEDEMYEV; listed as Homo sapiens) [compound 188] |
| “+++” (≥50 = +++) | 189 (SLSHLVPAL; listed as Homo sapiens) [compound 189] |
| “+++” (≥50 = +++) | 190 (GLIELVDQL; listed as Homo sapiens) [compound 190] |
| “+++” (≥50 = +++) | 191 (GLSDISAQV; listed as Homo sapiens) [compound 191] |
| “++” (≥20% = ++) | 192 (GMAAEVPKV; listed as Homo sapiens) [compound 192] |
| “++” (≥20% = ++) | 193 (SLADSMPSL; listed as Homo sapiens) [compound 193] |
| “++” (≥20% = ++) | 194 (SLAPFDREPFTL; listed as Homo sapiens) [compound 194] |
| “+++” (≥50 = +++) | 195 (ALIPDLNQI; listed as Homo sapiens) [compound 195] |
| “++” (≥20% = ++) | 197 (YLLTDNVVKL; listed as Homo sapiens) [compound 197] |
| “+++” (≥50 = +++) | 198 (GLLSAVSSV; listed as Homo sapiens) [compound 198] |
| “+++” (≥50 = +++) | 199 (SLNSTTWKV; listed as Homo sapiens) [compound 199] |
| “++++” (≥75% = ++++) | 200 (YLLDFEDRL; listed as Homo sapiens) [compound 200] |
